Measured values taken from patent publication EP3108897A1 (F. Hoffmann-La Roche AG, dated 2016).

Tests used:
[1] = biological target: human mutant CSF-1R L301S Y969F (full-length) (human) (UniProt P07333); assay: cell-based or functional assay
[2] = biological target: human wildtype CSF-1R (full-length) (human, UniProt P07333 20-972); assay: cell-based or functional assay

IC50 CSF-1R Phosphorylation (phospho/total CSF-1R ELISA on lysates of NIH3T3-CSF-1R cells stimulated with hu CSF-1) [2] | Substance | Mutant CSF-1R IC30 (CellTiterGlo viability of NIH3T3-mutant CSF-1R spheroids, 3 days) [1] | wtCSF-1R IC30 (CellTiterGlo viability of NIH3T3-wtCSF-1R spheroids, 3 days) [2] | % inhibition of cell viability at 20 µg/ml (NIH3T3-mutant CSF-1R spheroids) [1]
1.01 µg/mL | Anti CSF-1R SC 2-4A5 (Santa Cruz Biotechnology, US) (antibody) | 2.56 µg/mL | 16.6 µg/mL | –
– | goat polyclonal anti-CSF-1R antibody ab10676 (abcam) | > 20 µg/mL | 14.2 µg/mL | 0%
